According to patent publication US20140056903A1 (Regeneron, published 2014):

T1: human GFRα3 on HEK293/hGFRα3/hRET/SRE-luc cells (human, UniProt O60609 32-382)
T1 sequence: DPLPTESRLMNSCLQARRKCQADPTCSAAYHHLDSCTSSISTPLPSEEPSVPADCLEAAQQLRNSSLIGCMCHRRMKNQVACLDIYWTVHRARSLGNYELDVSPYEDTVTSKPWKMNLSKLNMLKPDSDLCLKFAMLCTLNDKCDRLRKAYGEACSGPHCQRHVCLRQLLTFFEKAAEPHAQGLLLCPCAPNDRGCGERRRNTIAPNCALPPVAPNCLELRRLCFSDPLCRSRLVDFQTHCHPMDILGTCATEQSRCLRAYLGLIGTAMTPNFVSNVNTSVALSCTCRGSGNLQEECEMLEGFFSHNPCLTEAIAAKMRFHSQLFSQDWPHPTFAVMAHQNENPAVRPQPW


Assays:
[1] = molecular target: T2, human GFRα3 expressed with a C-terminal myc-myc-hexahistidine tag (human, UniProt O60609 32-374, biotinylated (sites not given) in ELISA format 2 and in the Octet cross-competition; not in SPR); assay: Octet RED384; 25 µg/mL first antibody on streptavidin-captured biotin-hGFRα3-mmH
T2 construct: also called hGFRα3-mmh; hGFRα3-mmH
Experimental: (§1) A cross-competition assay was conducted to assess the ability of select antibodies to compete with one another for binding to human GFRα3 using an Octet RED384 biosensor (Fortebio Inc.). The entire experiment was performed at 25° C. with the flow rate of 1000 rpm in Octet HBST buffer (0.01 M HEPES pH7.4, 0.15M NaCl, 3 mM EDTA, 0.05% v/v Surfactant P20, 0.1 mg/mL BSA). To assess whether 2 antibodies were able to compete with one another for binding to their respective epitopes on biotinylated recombinant human GFRα3 expressed with a C-terminal myc-myc-hexahistidine tag (biotin-hGFRα3-mmH; SEQ ID:370), around ˜1.2 nm of biotin-hGFRα3-mmH was first captured onto streptavidin-coated Octet sensor tips (Fortebio Inc, #18-5019) by submerging the tips for 1 minute into a 10 μg/mL solution of biotin-hGFRα3-mmH. The antigen coated sensor tips were then placed into wells containing 25 μg/mL solution of a first anti-GFRα3 monoclonal antibody for 4 minutes to saturate the biotin-hGFRα3-mmH surface. The sensor tips were then subsequently dipped into wells containing 25 μ/mL solution of a second anti-GFRα3 monoclonal antibody. The sensor tips were washed in Octet HBST buffer in between every step of the experiment. The real-time binding response was monitored during the course of the experiment and the binding response at the end of every step was recorded as shown in FIG. 9. The response of mAb-2 binding to biotin-hGFRα3-mmH pre-complexed with the first antibody was compared and competitive/non-competitive behavior of different anti-GFRα3 monoclonal antibodies was determined.

[2] = molecular target: T1, human GFRα3 on …; assay: cell-based or functional assay
[3] = molecular target: T2, human GFRα3 expressed with a C-terminal …; assay: Octet cross-competition; biotin-hGFRα3-mmH pre-saturated with first antibody H4H2292S
Experimental: as §1

[4] = molecular target: T2, human GFRα3 expressed with a C-terminal …; assay: Octet cross-competition; biotin-hGFRα3-mmH pre-saturated with first antibody H4H2350P
Experimental: as §1

[5] = molecular target: T2, human GFRα3 expressed with a C-terminal …; assay: Octet cross-competition; biotin-hGFRα3-mmH pre-saturated with first antibody H4H2352S
Experimental: as §1

[6] = molecular target: T2, human GFRα3 expressed with a C-terminal …; assay: blocking ELISA 2, biotin-hGFRα3-mmH to coated hARTEMIN-mmH + hRET-10His
Experimental: The equilibrated sample solutions were then transferred to the hARTEMIN-mmH-coated plate. […] Absorbance was recorded at 450 nm on a Victor X5 plate reader (Perkin Elmer) to determine the amount of free hGFRα3-hFc in the pre-equilibrated hGFRα3-hFc-antibody solutions that was able to bind to the plate coated with hARTEMIN-mmH. IC₅₀ values, defined as the concentration of antibody required to reduce the signal from a constant concentration of hGFRα3-hFc by 50%, were calculated from the data using Prism software from GraphPad. The absorbance measured at the constant amount of 120 pM hGFRα3-hFc in the absence of anti-GFRα3 antibody is defined as 0% blocking and the absorbance with no added hGFRα3-hFc is defined as 100% blocking. The observed absorbance in the wells containing the highest antibody concentration was used to calculate the maximum blocking percent shown in the table.
In the second ELISA format, the plates, samples and data were processed similarly as for the first format except both hARTEMIN-mmH and human RET with a C-terminal 10 histidine tag (hRET-10His; R&D Systems, #1168-CR/CF) were coated for the blocking ELISA experiment. The 96-well microtiter plates were coated with a mixture of 1.2 ug/ml hARTEMIN-mmH and 6.9 ug/ml hRET-10His proteins in PBS overnight at 4° C. and then blocked with a solution of 0.5% (w/v) BSA. A constant amount of biotinylated human GFRα3 with a C-terminal myc-myc-hexahistidine tag (biotin-hGFRα3-mmH; SEQ ID:370) at 1 nM was pre-mixed with varied amounts of anti-GFRα3 antibodies, ranging from 0 to ˜100 nM in serial dilutions, followed by a 1 hour incubation at RT to allow antibody-biotin-hGFRα3-mmH binding to reach equilibrium. The equilibrated samples were then transferred to the coated plate. After 1 hour of binding, the plate was washed, then the bound biotin-hGFRα3-mmH was detected using HRP conjugated streptavidin (Pierce, #N200), and colorimetric signals were developed using TMB HRP substrates.

Amount of Antibody 1 bound (nm) [1] [nm] | IC50 (SRE-luc, HEK293/hGFRα3/hRET cells, 100 pM hARTEMIN-mmH) [2] [nM] | binding response of second antibody (nm) [3] [nm] | binding response of second antibody (nm) [4] [nm] | binding response of second antibody (nm) [5] [nm] | % max blocking [6] [%] | IC50 [6] [nM] | Binder
2.69 | 1 | 2.16 | 1.8 | 2.08 | 97 | 1.08 | H4H2342P (antibody, human IgG4, V domains shown, human IgG4 Fc (H4H)) VH: EVQLLESGGGLVQPGGSLRLSCAASGFTFSTYAMSWVRQAPGKGLEWVSAIRGNGVNTYYGDSMKGRFTISRDNSKDTLYLQMNSLRAEDTAVYYCAKNKWELLVFEYWGQGTLVTVSS VL: DIQMTQSPSSLSASVGDRVTITCRASQDISNYLAWYQQKPGKVPKLLIYAASTLQSGVPFRFSGSGSGTDFTLTISSLQPEDVATYYCQKYNSAPPFGPGTKVDIK
2.73 | 2.3 | 2.07 | 1.77 | 2.12 |  |  | H4H2355S (antibody, human IgG4, V domains shown, human IgG4 Fc (H4H)) VH: EVQLVESGGGLVQPGGSLRLSCAASGFTFSSYAMSWVRQVPGKGLEWVSAISGSGDNTYNAESVKGRFTISRDNSKNMLYLQMNSLRAEDTAVYYCAKTKFSSSLLFDYWGQGTLVTVSS VL: not shown
2.82 | 4.9 | 2.43 | 2.23 | 2.45 | 86 | 3.28 | H4H2357S (antibody, human IgG4, V domains shown, human IgG4 Fc (H4H)) VH: EVQLVESGGGLVQPGGSLRLSCAASTFTFSSYAMTWVRQAPGKGLEWVSSISGSGDSTYYADSVKGRFTISRDNSKNTLFLQMNSLRAEDTAVYYCAKKDGPGRYYVRYGMDVWGQGTTVTVSS VL: DIQMTQSPSSVSASVGDRVTITCRASQGISSWLAWYQQKPGKAPKLLIYTTSSLQSGVPSRFSGSGSGTDFTLTISSLQPEDFATYYCQQANSFPLTFGGGTKVDIK

Second part, the binder before the results:

Binder | Amount of Antibody 1 bound (nm) [1] [nm] | IC50 (SRE-luc, HEK293/hGFRα3/hRET cells, 100 pM hARTEMIN-mmH) [2] [nM] | binding response of second antibody (nm) [3] [nm] | binding response of second antibody (nm) [4] [nm] | binding response of second antibody (nm) [5] [nm] | % max blocking [6] [%] | IC50 [6] [nM]
H4H2291S (antibody, human IgG4, V domains shown, human IgG4 Fc (H4H)) VH: EVQLVESGGGLVQPGESLRLSCAASGFTFSNYAMSWVRQAPGKGLEWVSVISGSGGSTYYADSVKGRFTMSRDNSKNTLYLQMNSLRAEDTAVYYCAKPPSRAARYFNYGMDVWGQGTTVTVSS VL: AIRMTQSPSSVSASVGDRVTITCRASQGISSWLAWYQQKPGKAPKLLIYAASSLQSGVPSRFSGSGSGTDFTLTISSLQPEDFATYYCQQANSFPFTFGGGTKVEIK | 2.89 | 1.3 | 2.81 | 2.57 | 2.63 |  | 
H4H2295S (antibody, human IgG4, V domains shown, human IgG4 Fc (H4H)) VH: EVQLVESGGGLVQAGGSLRLSCVASGFTFSSYAMSWVRQAPGKGLEWVSAISGSGGSTYSADSVKGRFTISRDNSKNTLYLQMNSLRAEDTAVYYCTKPSSYSSSNFYYGMDVWGQGTTVTVSS VL: DIQMTQSPSSVSASVGDRVTITCRASQGISSWLAWYQQKPGKAPKLLIYTASSLQSGVPSRFSGSGSRTDFTLTISSLQPEDFATYYCQQTNSLPLTFGPGTKVEIK | 2.83 | 1.5 | 2.31 | 2.05 | 2.31 |  | 
H4H2296S (antibody, human IgG4, V domains shown, human IgG4 Fc (H4H)) VH: not shown VL: DIVMTQSPSSVSASVGDRVTITCRASQGISSWLAWYQQKPGKAPKLLIYAASSLRSGVPSRFSGSGSGTDFTLTITSLQPEDFATYYCQHTNSFPFTFGPGTKVEIK | 2.88 | 1.4 | 2.36 | 2.1 | 2.35 |  | 
H4H2212N (antibody, human IgG4, V domains shown, human IgG4 Fc (H4H)) VH: EVQLLESGGGLVQPGGSLRLSCAASGFTFSSYAMSWVRQGPGKGLEWVSGISGSGGSTYNADSVKGRFTISRDNSKNTLYLQMNSLRAEDTAVYYCAKDSGTYWYYFDYWGQGILVTVSS VL: not shown | 2.32 | 0.8 | 1.78 | 1.57 | 0.05 | 99 | 0.403
H4H2292S (antibody, human IgG4, V domains shown, human IgG4 Fc (H4H)) VH: EVQLVESGGGVVQPGRSLRLSCAASGFTFSSYGMHWVRQAPGKGLEWVSFIWYDGSNKYYADSVKGRFTISRDNSKNTLYLQMNSLTAEDTAVYYCARRGILTGTTAFDIWGQGTMVTVSS VL: DIQMTQSPSSLSASVGDRVTITCRASQSISSYLNWYQQKPGKAPKLLIYAASSLQSGVPSRFSGSGSGTDFTLTIRSLIPEDFATYYCQQTYNTPFTFGPGTKVEIK | 2.82 | 4.6 | 0.11 | 1.74 | 0.15 | 100 | 1.76
H4H2243N2 (antibody, human IgG4, V domains shown, human IgG4 Fc (H4H)) VH: QVQLVQSGAEVKKPGASVKVSCKASGYTFTSYGIIWVRQAPGQGLEWMGWISGYNGNTNYAQNLQGRVTMTTDTSTTTAYMELRSLRSDDTAVYYCARWGIATRPYYYYGMDVWGQGTTVTVSS VL: DIQMTQSPSSLSASVGDRVTITCRASQDITNYLAWFQQKPGKAPKSLIYAASSLQSGVPSKFSGSGSGTDFTLTISSLQPEDFATYYCQQYNSYPPTFGPGTKVDIK | 2.42 | 0.3 | 1.91 | 1.72 | 0.13 | 95 | 1.12
